Data taken from patent publication US5985836A, “Alpha-1 proteinase inhibitor binding peptides” (Bayer Corporation, priority 1998, dated 1999).
Ends that are not written are not given here.

Key:
AlPI = target: T1, AlPI (Homo sapiens, UniProt P01009); assay: Effect of peptide density on AlPI capture from Eff. II+III, 4M GdnHCl final strip; type: binding; settings: 4° C.; for Mass AlPI per Eluate Fraction, 1M NaCl / Mass AlPI per Eluate Fraction, Flowthrough / Mass AlPI per Eluate Fraction, 4M GdnHCl: * Below detection limit
T1 construct: Eff; II+III is a process intermediate in the Cohn plasma fractionation process; tissue Bayer Corporation (Clayton, N.C.); host or cells: plasma fraction: Cohn Effluent II+III
Protocol: The substitution density of the peptide VIFLVR (SEQ ID NO:37) on the Tosohaas resin was reduced by the varying the ratio of Fmoc-L-Ala/Boc-L-Ala following linkage of the Totda linker. A similar procedure was outlined previously (Buettner et al. 1997). The peptide was then synthesized onto these resins. A 1.0 ml aliquot of neat Eff. II+III was injected onto the columns, and the chromatography cycle was the same as used for other studies involving Eff. II+III. The one exception was the use of 4M guanidine hydrochloride (GdnHCl) in lieu of 2% acetic acid as the final strip.

A1PI = target: T2, A1PI (Homo sapiens, UniProt P01009); assay: Capture and elution of active A1PI with 2M urea buffer (elastase inhibition activity assay and immunonephelometry); type: binding; settings: 4° C.
T2 construct: Human plasma is currently the only approved source of therapeutic AlPI
T2 sequence (P01009 25-418): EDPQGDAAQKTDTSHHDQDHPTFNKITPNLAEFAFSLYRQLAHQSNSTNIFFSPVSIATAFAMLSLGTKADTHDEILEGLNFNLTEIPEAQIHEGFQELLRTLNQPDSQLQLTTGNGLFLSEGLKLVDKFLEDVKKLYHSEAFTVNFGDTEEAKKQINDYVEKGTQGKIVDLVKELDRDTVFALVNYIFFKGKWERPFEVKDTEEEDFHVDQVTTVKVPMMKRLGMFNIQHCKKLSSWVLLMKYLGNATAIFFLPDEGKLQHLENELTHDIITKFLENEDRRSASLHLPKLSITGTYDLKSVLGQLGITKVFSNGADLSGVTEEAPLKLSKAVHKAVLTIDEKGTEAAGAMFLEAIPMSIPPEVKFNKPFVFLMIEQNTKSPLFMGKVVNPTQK

T1 sequence (P01009 25-418): as above

Percent Eluted by Fraction, 1M NaCl (AlPI; peptide density 6 μmol/g): 12%
Percent Eluted by Fraction, 4M GdnHCl (AlPI; peptide density 6 μmol/g): 0%
Percent Eluted by Fraction, Flowthrough (AlPI; peptide density 6 μmol/g): 88%
Mass AlPI per Eluate Fraction, 1M NaCl (AlPI; peptide density 6 μmol/g): 0.09 mg
Mass AlPI per Eluate Fraction, Flowthrough (AlPI; peptide density 6 μmol/g): 0.69 mg
Percent Eluted by Fraction, 1M NaCl (AlPI; peptide density 17 μmol/g): 44%
Percent Eluted by Fraction, 4M GdnHCl (AlPI; peptide density 17 μmol/g): 7%
Percent Eluted by Fraction, Flowthrough (AlPI; peptide density 17 μmol/g): 49%
Mass AlPI per Eluate Fraction, 1M NaCl (AlPI; peptide density 17 μmol/g): 0.36 mg
Mass AlPI per Eluate Fraction, 4M GdnHCl (AlPI; peptide density 17 μmol/g): 0.05 mg
Mass AlPI per Eluate Fraction, Flowthrough (AlPI; peptide density 17 μmol/g): 0.39 mg
Percent Eluted by Fraction, 1M NaCl (AlPI; peptide density 54 μmol/g): 0%
Percent Eluted by Fraction, 4M GdnHCl (AlPI; peptide density 54 μmol/g): 74%
Percent Eluted by Fraction, Flowthrough (AlPI; peptide density 54 μmol/g): 26%
Mass AlPI per Eluate Fraction, 4M GdnHCl (AlPI; peptide density 54 μmol/g): 0.57 mg
Mass AlPI per Eluate Fraction, Flowthrough (AlPI; peptide density 54 μmol/g): 0.20 mg
Percent Eluted by Fraction, 1M NaCl (AlPI; peptide density 62 μmol/g): 0%
Percent Eluted by Fraction, 4M GdnHCl (AlPI; peptide density 62 μmol/g): 83%
Percent Eluted by Fraction, Flowthrough (AlPI; peptide density 62 μmol/g): 17%
Mass AlPI per Eluate Fraction, 4M GdnHCl (AlPI; peptide density 62 μmol/g): 0.70 mg
Mass AlPI per Eluate Fraction, Flowthrough (AlPI; peptide density 62 μmol/g): 0.14 mg
Percent Eluted by Fraction, 1M NaCl (AlPI; peptide density 70 μmol/g): 0%
Percent Eluted by Fraction, 4M GdnHCl (AlPI; peptide density 70 μmol/g): 72%
Percent Eluted by Fraction, Flowthrough (AlPI; peptide density 70 μmol/g): 28%
Mass AlPI per Eluate Fraction, 4M GdnHCl (AlPI; peptide density 70 μmol/g): 0.69 mg
Mass AlPI per Eluate Fraction, Flowthrough (AlPI; peptide density 70 μmol/g): 0.26 mg
Percent Eluted by Fraction, 1M NaCl (AlPI; peptide density 100 μmol/g): 0%
Percent Eluted by Fraction, 4M GdnHCl (AlPI; peptide density 100 μmol/g): 82%
Percent Eluted by Fraction, Flowthrough (AlPI; peptide density 100 μmol/g): 18%
Mass AlPI per Eluate Fraction, 4M GdnHCl (AlPI; peptide density 100 μmol/g): 0.57 mg
Mass AlPI per Eluate Fraction, Flowthrough (AlPI; peptide density 100 μmol/g): 0.13 mg
Mass A1PI in Urea Eluate (mg), Activity (A1PI; 1 mg A1PI, eluted with 2M urea, pH 6, elastase inhibition activity assay): 0.36 mg
Mass A1PI in Urea Eluate (mg), Nephelometry (A1PI; 1 mg A1PI, eluted with 2M urea, pH 6, immunonephelometry): 0.45 mg
Specific Activity (A1PI; mass of A1PI by activity assay relative to immunonephelometry, urea eluate): 0.81 mg/mg
Substance: VIFLVR
